Reference: US12077763B2, “RNA-based control of powdery mildew” (Greenlight Biosciences, Inc., priority 2021, dated 2024)

B1: GS3362 (nucleic acid)
sense: UACCCGUCUGCAACAGGUACAGGUGGUUACGCAUCGCCAACAGGGACCAGUUACCCUACACCUACUGGAGGUUACUCUGAAGAGCCCUACCACUAUAAAGGUGUCAAGCUAGGUCAUUGAGAGGAUUGAGUUACGAAAUUUGAUUGCAGCCACGCCUUCGACUUCAACCGAGAAGAGUUCCAAUCUCCCUCUUAGACGCAGGACUACUCUCACGAUACUUCUGUCUCUACUUCUUCUCAUGAGCACGCUAAUACUCUCUAAGCCUCCGUUGAUGUGUUGAAAGACAGGCACCUCAGUUUUGAUUCUAUUCAGCUCGGCAAACAUGUUGUGUACAUUCAUAGACUGAAUUUCUUUUUUAUUAUUUUUUUCCAAAUACACUCUUCCUGGAAAAAGAAGCCCU
antisense: AGGGCUUCUUUUUCCAGGAAGAGUGUAUUUGGAAAAAAAUAAUAAAAAAGAAAUUCAGUCUAUGAAUGUACACAACAUGUUUGCCGAGCUGAAUAGAAUCAAAACUGAGGUGCCUGUCUUUCAACACAUCAACGGAGGCUUAGAGAGUAUUAGCGUGCUCAUGAGAAGAAGUAGAGACAGAAGUAUCGUGAGAGUAGUCCUGCGUCUAAGAGGGAGAUUGGAACUCUUCUCGGUUGAAGUCGAAGGCGUGGCUGCAAUCAAAUUUCGUAACUCAAUCCUCUCAAUGACCUAGCUUGACACCUUUAUAGUGGUAGGGCUCUUCAGAGUAACCUCCAGUAGGUGUAGGGUAACUGGUCCCUGUUGGCGAUGCGUAACCACCUGUACCUGUUGCAGACGGGUA
B2: GS3445 (nucleic acid)
sense: GAAGACCAAGCUAGAGCGAGUACAAAAACAUCCCGCAACAUAUCAAUGUCAUCUUUGCCCCAAAAAAUUUACUCGCGCCUAUAAUCUUCGCUCCCAUCUCCGAACGCAUACAAACGAGCGACCUUUUAUCUGUUCCAAGUGCACAAAAGCUUUUGCGCGUCAGCAUGAUCGAAAACGACAUGAGAGCCUACAUUCAGGUGAAAAAAGAUUUAUUUGUAGAGGAGAACUUAAAAAUGGUGGUCAUUGGGGCUGUGGCCGUCCCUUUGCUCGUGCAGAUGCCUUAAAUCGACAUUUCCGAUCGGAAGCAGGCCGAGCUUGCAUAAAUCCACUCAUAGAGGAAGACGAAUCUGAAAAUCUACGGCUAUGGAAUGAGAAACAAAUUCAAAAUAUUAAACAAA
antisense: UUUGUUUAAUAUUUUGAAUUUGUUUCUCAUUCCAUAGCCGUAGAUUUUCAGAUUCGUCUUCCUCUAUGAGUGGAUUUAUGCAAGCUCGGCCUGCUUCCGAUCGGAAAUGUCGAUUUAAGGCAUCUGCACGAGCAAAGGGACGGCCACAGCCCCAAUGACCACCAUUUUUAAGUUCUCCUCUACAAAUAAAUCUUUUUUCACCUGAAUGUAGGCUCUCAUGUCGUUUUCGAUCAUGCUGACGCGCAAAAGCUUUUGUGCACUUGGAACAGAUAAAAGGUCGCUCGUUUGUAUGCGUUCGGAGAUGGGAGCGAAGAUUAUAGGCGCGAGUAAAUUUUUUGGGGCAAAGAUGACAUUGAUAUGUUGCGGGAUGUUUUUGUACUCGCUCUAGCUUGGUCUUC
B3: GS3446 (nucleic acid)
sense: ACCCGCAGGUACUCUUAUGCUUGGAGCUGAAGGUAUUAAAGAUGCCAUAACUGGCUUCGAAGAUGCUCGUAAAGUAGAUUUAAAGAAUGAAAGAUUGCCUCCAAGUCUUGAGGAAAUUACACGAACAAGUGAAGAGGAUAGAGCUCUGGCAUUAGAGAGGGCUAAGGAAAGUGCGGAUAAUGAUCGAGGGCUUCAGAUUUUAUCUAGAAGACUCAGUUUAGUUGGCACUCAACCAAAUAGACCGCAACCGAGUAAAAUUCUGAACUCUGUUCUAGCCCUCGAUAAAGAUGUUUCUGAGAAAUAAGAGGUCGAUCAGAGUCACCUCCUGUUACAAGCUCAUUGGUUGGUCUGCAGGUACAGAAUUACUAAUCAUACCACGA
antisense: UCGUGGUAUGAUUAGUAAUUCUGUACCUGCAGACCAACCAAUGAGCUUGUAACAGGAGGUGACUCUGAUCGACCUCUUAUUUCUCAGAAACAUCUUUAUCGAGGGCUAGAACAGAGUUCAGAAUUUUACUCGGUUGCGGUCUAUUUGGUUGAGUGCCAACUAAACUGAGUCUUCUAGAUAAAAUCUGAAGCCCUCGAUCAUUAUCCGCACUUUCCUUAGCCCUCUCUAAUGCCAGAGCUCUAUCCUCUUCACUUGUUCGUGUAAUUUCCUCAAGACUUGGAGGCAAUCUUUCAUUCUUUAAAUCUACUUUACGAGCAUCUUCGAAGCCAGUUAUGGCAUCUUUAAUACCUUCAGCUCCAAGCAUAAGAGUACCUGCGGGU
B4: GS3447 (nucleic acid)
sense: CAACAGCUUGAAUUGCACGGAAUUAUCACUAUCAUCCCGACUAAGCCUCUCAAAAAGCAAAAUUUAUUUGCUAGCUCGGAAAAGAUAACAGCUAGCUACGCAAAAGCUAUUCAAGAUGGUUGUUGGCAUUCAUUUUCGCCAAACUCUCAGAAAAGCUGCAACAAAUCCCCGUCAUAUAGAAAACAACUCUAAUCAGCCAGAAACUAUGUUGUCCGGAGAAAAUAUUGGGUUACUUACGGGGCGAACAUCAAACGCCCGCAAAAGUGCGUGGCGACAAAUUUACGAUGUACUCGGAAGCAAACAUUAUUCAGCCGGAAAAGAUAGUGAUAGUAAAAUUGUACGAGCUAUAGCGCCAACUAUUCAGAUUACAAAAAUUACGUUAUACAGUAAUUAUGUC
antisense: GACAUAAUUACUGUAUAACGUAAUUUUUGUAAUCUGAAUAGUUGGCGCUAUAGCUCGUACAAUUUUACUAUCACUAUCUUUUCCGGCUGAAUAAUGUUUGCUUCCGAGUACAUCGUAAAUUUGUCGCCACGCACUUUUGCGGGCGUUUGAUGUUCGCCCCGUAAGUAACCCAAUAUUUUCUCCGGACAACAUAGUUUCUGGCUGAUUAGAGUUGUUUUCUAUAUGACGGGGAUUUGUUGCAGCUUUUCUGAGAGUUUGGCGAAAAUGAAUGCCAACAACCAUCUUGAAUAGCUUUUGCGUAGCUAGCUGUUAUCUUUUCCGAGCUAGCAAAUAAAUUUUGCUUUUUGAGAGGCUUAGUCGGGAUGAUAGUGAUAAUUCCGUGCAAUUCAAGCUGUUG
B5: GS3448 (nucleic acid)
sense: GAAGAUACAAAUUUAUGCGCUAUUCAUGCUAAACGUGUUACUAUAAUGCAAAAAGACAUUCAGCUUGCAAGGCGAAUCAGAGGGGUUUGGGGUGGUUUAGGCUAGCUUUUUUAUUCUAAAUAUACCAGUGCCCGAAUUUGAUCUCCCUAAGCCACACCAUCGAGUUGAAAUGAUGAGAGGAAGAUGACGAGAAUAAAAUUAUUGUGAAUAUUCGUUAUAUGGAUAAGCGUAGAGGGGAUCUAAUACUUGUGAAUUGGUAAUCUUGAGUUAUCACUUUUUCUGGCGCAUCCAGCGACCCUAAGCAUAUGGACACUAGUGAUUGCGUCUUAGGGUUAUAGUAGCCAAGAGGAAUUUGAAGCACACAUAUUAGCACAGCAUAAUAAUAAAUAA
antisense: UUAUUUAUUAUUAUGCUGUGCUAAUAUGUGUGCUUCAAAUUCCUCUUGGCUACUAUAACCCUAAGACGCAAUCACUAGUGUCCAUAUGCUUAGGGUCGCUGGAUGCGCCAGAAAAAGUGAUAACUCAAGAUUACCAAUUCACAAGUAUUAGAUCCCCUCUACGCUUAUCCAUAUAACGAAUAUUCACAAUAAUUUUAUUCUCGUCAUCUUCCUCUCAUCAUUUCAACUCGAUGGUGUGGCUUAGGGAGAUCAAAUUCGGGCACUGGUAUAUUUAGAAUAAAAAAGCUAGCCUAAACCACCCCAAACCCCUCUGAUUCGCCUUGCAAGCUGAAUGUCUUUUUGCAUUAUAGUAACACGUUUAGCAUGAAUAGCGCAUAAAUUUGUAUCUUC

System: E. necator
Assay: Leaf disc assay, dry inoculum (settling tower), decrease in disease severity / hyphal growth (Example 2)
Settings: decrease in disease severity (hyphal growth) relative to untreated control, value ± SE; for % decrease =/− SE TP1: time point 1 (untreated control hyphal growth ≥50%)

Molecule	% decrease =/− SE TP1 [%]	% decrease =/− SE TP2 (time point 2) [%]
B1	14 ± 4	
B2	14 ± 9	16 ± 10
B3	36 ± 3	
B4	35 ± 3	
B5	19 ± 3	
